From patent publication US20210299158A1 (NORTHWESTERN UNIVERSITY, published 2021)
Ends that are not written are not given here. * marks the point of attachment. Biotin = O=C1N[C@H]2[C@H](CS[C@H]2CCCCC(=O)*)N1

T1: Collagen type III (human) (human, UniProt P02461 154-1221)
T1 construct: Coated on plates; also called collagen III; COL III
T1 sequence (looked up): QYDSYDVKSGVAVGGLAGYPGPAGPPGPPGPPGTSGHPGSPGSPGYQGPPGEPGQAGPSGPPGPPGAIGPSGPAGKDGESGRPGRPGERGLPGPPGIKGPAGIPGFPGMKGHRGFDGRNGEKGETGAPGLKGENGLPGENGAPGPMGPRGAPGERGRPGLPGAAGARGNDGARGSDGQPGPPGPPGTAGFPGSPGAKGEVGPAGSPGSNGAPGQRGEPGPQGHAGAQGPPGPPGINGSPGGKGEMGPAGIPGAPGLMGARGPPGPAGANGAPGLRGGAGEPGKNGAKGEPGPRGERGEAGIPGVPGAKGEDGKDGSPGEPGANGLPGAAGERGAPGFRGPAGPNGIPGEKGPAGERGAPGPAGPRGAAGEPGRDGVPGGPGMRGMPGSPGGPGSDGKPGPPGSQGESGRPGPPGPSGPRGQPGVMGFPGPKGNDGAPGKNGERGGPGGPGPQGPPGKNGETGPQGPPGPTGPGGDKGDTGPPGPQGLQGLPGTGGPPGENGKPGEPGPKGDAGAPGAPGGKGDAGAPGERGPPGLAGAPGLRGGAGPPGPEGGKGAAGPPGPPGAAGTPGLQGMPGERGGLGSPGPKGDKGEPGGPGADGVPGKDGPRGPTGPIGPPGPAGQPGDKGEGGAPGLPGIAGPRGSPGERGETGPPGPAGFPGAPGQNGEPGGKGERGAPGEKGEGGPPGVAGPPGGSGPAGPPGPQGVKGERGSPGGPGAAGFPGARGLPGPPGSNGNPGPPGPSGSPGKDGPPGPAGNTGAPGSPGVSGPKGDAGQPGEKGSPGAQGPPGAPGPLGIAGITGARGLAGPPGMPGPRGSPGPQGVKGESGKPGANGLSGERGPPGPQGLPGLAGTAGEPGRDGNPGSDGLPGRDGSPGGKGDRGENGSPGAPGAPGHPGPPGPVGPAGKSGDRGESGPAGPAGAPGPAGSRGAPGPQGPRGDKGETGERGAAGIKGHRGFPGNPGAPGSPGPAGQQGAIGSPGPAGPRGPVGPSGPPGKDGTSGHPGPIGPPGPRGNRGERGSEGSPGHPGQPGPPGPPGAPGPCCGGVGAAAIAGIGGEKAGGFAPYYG


Tests used:
[1] = biological target: T2, Fibronectin from human plasma (human, UniProt P02751-8 32-2296, limits assumed); experiment: plate binding, biotinylated peptide on coated protein, streptavidin-594 fluorescence
T2 construct: Coated on plates; also called FN
Experimental: (§1) Peptide and ECM Binding Specificity. Collagens I, II, III, and IV, fibronectin, laminin, and Matrigel were coated onto 96-well black plates at 10 μg/cm². Biotinylated CBP or CBPi were added to coated plates at 0, 1, 10, 100, and 1000 μM overnight at 4° C., after which the plates were washed three times with PBS. Fluorescent streptavidin-594 (4 μg/mL) was added to each well and incubated at room temperature for 2 h, then thoroughly washed with PBS. The plates were read with a fluorescence microplate reader for fluorescence intensity (Ex 591 nm, Em 614 nm). All data were normalized to the background fluorescence intensity of Streptavidin-594 alone directed at each coated protein.
(§2) CBP Selectively Binds to ECM with High Specificity to Collagen IV. […] Bound peptides were subsequently probed with fluorescently labeled streptavidin. CBP, but not CBPi, bound specifically to collagen IV coated surfaces with high relative affinity, and to collagen I coated surfaces to a much lesser extent. […] Neither CBP nor CBPi binds to collagen II, collagen III, or fibronectin.

[2] = biological target: T1, Collagen type III (human); experiment: as above
Experimental: as §1, §2

[3] = biological target: T3, Collagen type IV (mouse) (mouse, UniProt P02463 28-1669; P08122 26-1707); experiment: as above
T3 construct: Coated on plates at 10 ug/cm^2; the chains come from general knowledge; also called collagen IV; COL IV
Experimental: as §1, §2

[4] = biological target: T4, Collagen type I (rat) (rat, UniProt P02454 152-1207; P02466 86-1125); experiment: as above
T4 construct: Coated on plates at 10 ug/cm^2; the chains come from general knowledge; also called collagen I; COL I
Experimental: as §1, §2

[5] = biological target: Collagen IV (surface coated, Example 2); experiment: Cy5 fluorescence after 24 hour incubation on surface coated collagen IV; conjugate at 30 mg/ml; reference is the scrambled CBPi-Hep(Cy5) conjugate
[6] = biological target: T3, Collagen type IV (mouse); experiment: plate binding, biotinylated CBP at 100 µM on coated collagen IV, streptavidin-594 fluorescence normalised to background
Experimental: as §1, §2

[7] = biological target: T3, Collagen type IV (mouse); experiment: plate binding, biotinylated CBP at 1000 µM on coated collagen IV, streptavidin-594 fluorescence normalised to background
Experimental: as §1, §2

T3 sequence (P02463 28-1669, chain 1 of 2): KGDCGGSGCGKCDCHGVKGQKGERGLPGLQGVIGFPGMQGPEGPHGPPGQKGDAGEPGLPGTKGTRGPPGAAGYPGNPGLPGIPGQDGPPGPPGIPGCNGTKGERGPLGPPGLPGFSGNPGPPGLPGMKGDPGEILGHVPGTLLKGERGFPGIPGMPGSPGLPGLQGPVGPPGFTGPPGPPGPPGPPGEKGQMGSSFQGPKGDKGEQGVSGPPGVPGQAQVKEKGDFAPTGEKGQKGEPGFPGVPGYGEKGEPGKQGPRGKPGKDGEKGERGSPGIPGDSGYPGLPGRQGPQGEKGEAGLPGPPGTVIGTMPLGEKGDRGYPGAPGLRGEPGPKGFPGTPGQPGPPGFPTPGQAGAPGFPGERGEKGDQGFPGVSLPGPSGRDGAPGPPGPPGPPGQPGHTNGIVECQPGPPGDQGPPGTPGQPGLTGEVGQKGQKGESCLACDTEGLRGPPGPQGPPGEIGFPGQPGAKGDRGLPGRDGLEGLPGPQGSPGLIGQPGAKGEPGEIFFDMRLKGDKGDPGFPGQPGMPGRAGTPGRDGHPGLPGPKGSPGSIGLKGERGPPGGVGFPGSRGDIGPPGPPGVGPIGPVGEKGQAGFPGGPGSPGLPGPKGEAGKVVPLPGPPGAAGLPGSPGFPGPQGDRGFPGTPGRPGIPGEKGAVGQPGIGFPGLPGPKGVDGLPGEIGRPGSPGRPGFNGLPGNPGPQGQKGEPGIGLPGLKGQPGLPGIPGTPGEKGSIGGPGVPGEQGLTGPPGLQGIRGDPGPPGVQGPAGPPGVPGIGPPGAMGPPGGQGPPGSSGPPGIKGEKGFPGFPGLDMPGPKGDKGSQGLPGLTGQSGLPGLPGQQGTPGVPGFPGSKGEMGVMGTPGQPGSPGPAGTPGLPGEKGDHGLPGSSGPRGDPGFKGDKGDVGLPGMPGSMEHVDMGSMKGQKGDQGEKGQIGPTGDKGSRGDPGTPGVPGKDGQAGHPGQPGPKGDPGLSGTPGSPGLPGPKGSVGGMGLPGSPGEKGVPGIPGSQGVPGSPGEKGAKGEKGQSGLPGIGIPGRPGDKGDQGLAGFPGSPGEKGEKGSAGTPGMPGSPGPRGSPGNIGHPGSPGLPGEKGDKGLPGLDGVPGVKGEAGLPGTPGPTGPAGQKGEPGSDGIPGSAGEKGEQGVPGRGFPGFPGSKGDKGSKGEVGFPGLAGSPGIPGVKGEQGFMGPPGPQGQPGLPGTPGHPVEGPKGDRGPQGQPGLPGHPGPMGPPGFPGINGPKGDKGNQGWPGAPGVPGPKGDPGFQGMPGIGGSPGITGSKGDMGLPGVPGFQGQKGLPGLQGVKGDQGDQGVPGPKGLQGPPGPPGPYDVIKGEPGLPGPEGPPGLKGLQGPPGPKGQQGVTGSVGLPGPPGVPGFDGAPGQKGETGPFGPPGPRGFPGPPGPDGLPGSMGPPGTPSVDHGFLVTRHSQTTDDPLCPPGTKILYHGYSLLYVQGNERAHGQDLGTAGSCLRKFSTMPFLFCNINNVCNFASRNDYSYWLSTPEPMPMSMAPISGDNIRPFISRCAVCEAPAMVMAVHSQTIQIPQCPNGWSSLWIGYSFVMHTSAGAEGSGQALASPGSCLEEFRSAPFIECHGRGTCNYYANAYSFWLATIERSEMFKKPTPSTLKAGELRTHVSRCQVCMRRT
T3 sequence (P08122 26-1707, chain 2 of 2): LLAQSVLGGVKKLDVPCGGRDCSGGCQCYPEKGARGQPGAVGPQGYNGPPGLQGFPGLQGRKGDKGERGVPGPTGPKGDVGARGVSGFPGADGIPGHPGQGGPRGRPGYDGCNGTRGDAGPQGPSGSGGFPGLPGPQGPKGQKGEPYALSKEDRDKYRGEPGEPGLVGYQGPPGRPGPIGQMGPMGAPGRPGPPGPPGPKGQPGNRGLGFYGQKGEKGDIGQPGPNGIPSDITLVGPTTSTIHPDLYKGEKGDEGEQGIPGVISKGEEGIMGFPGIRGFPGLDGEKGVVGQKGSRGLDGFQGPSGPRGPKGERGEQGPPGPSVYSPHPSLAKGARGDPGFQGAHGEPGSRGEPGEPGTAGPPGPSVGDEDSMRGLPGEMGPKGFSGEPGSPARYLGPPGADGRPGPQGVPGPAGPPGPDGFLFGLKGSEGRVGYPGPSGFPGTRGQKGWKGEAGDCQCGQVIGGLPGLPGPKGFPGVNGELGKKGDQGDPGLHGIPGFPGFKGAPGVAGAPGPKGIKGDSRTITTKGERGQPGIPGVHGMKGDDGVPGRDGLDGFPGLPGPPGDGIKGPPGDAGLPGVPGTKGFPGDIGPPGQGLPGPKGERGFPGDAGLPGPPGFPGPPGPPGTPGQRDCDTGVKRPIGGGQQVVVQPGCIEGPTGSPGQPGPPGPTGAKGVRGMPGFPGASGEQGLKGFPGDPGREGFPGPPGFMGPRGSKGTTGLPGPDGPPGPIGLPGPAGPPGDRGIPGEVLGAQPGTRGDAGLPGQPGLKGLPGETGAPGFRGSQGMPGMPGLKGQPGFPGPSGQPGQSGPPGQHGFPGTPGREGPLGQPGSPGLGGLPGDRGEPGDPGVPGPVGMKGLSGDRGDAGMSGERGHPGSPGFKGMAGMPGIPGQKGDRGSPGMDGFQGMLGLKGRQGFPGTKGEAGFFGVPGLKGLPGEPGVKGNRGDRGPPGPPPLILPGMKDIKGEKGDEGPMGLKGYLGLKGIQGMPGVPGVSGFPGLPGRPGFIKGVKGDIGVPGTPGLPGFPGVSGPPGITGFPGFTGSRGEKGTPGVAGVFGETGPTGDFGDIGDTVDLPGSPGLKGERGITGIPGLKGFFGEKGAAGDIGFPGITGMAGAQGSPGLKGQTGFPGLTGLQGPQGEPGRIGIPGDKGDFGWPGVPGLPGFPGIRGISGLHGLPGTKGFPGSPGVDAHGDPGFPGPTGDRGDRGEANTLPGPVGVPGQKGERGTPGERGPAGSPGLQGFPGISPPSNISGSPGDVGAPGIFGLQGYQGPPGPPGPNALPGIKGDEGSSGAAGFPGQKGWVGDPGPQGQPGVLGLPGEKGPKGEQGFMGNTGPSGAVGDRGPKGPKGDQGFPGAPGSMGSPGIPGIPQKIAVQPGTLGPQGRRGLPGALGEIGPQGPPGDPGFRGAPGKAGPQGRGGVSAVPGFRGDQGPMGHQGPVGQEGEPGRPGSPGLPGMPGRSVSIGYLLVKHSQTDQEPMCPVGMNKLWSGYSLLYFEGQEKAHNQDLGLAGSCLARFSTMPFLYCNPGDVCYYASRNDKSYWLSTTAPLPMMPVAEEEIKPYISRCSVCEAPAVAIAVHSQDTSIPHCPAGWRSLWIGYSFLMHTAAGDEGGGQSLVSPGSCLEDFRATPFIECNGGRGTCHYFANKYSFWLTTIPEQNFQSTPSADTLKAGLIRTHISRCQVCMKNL

binding result [1] | binding result [2] | binding result [3] | binding result [4] | fold binding against the scrambled CBPi control [5] | fold increase in surface fluorescence intensity [6] | fold increase in surface fluorescence intensity [7] | Binder
no binding (tested: 1000 µM) | no binding (tested: 1000 µM) | no binding (tested: 1000 µM) | no binding (tested: 1000 µM) |  |  |  | Biotin-CDEFQRSTTY (also called biotinylated CBPi) [Biotinylated inactive, nonbinding peptide CBPi (biotin-CDEFQRSTTY)]
 |  |  |  | 4 fold |  |  | CQDSETRTFY (also: peptide conjugated by EDC/NHS to carboxyl groups of Cy5-labelled heparin (28 kD), attachment site not given here) [CBP-Hep(Cy5), improved batch (Heparin(Cy5)-CBP conjugate, 20 C, 10:1 molar ratio CBP:Hep-Cy5)]
no binding (tested: 1000 µM) | no binding (tested: 1000 µM) |  |  |  | 3.85 fold | 12.1 fold | Biotin-CQDSETRTFY (also called biotinylated CBP) [Biotinylated collagen-binding peptide CBP (biotin-CQDSETRTFY)]
